According to publication PMC5595413:
Values joined by “and” are separate entries in the source; they are usually repeats but may differ in a detail not shown here. Equal entries are not always repeated.

Legend:
[1] = biological target: C107S SqrR (R. capsulatus); experiment: SEC + cross-linking
[2] = biological target: C41S SqrR (R. capsulatus); experiment: SEC + cross-linking

Row | stoichiometry N [1] | stoichiometry N [2] | Substance
1 | 2 and 4 |  | C107S SqrR (natural protein)
2 |  | 2 | C41S SqrR (natural protein)
